Key:
[1] = biological target: Microtubule extensions grown from free porcine brain tubulin with GTP (GDP-tubulin lattice with growing ends) (porcine) (UniProt P02550); experiment: two-color TIRF microscopy; GMPCPP seeds immobilised on coverslips (biotin-neutravidin or anti-rhodamine antibodies); 50 nM EB1-GFP with 12 uM free tubulin (10-24 uM in other runs) and 1 mM GTP in Imaging Buffer (BRB80, glucose, glucose-oxidase, catalase, casein, beta-mercaptoethanol), no additional salt; 35 C
[2] = biological target: GMPCPP microtubules (GMPCPP-tubulin microtubule lattice; seeds and GMPCPP-grown extensions) of porcine brain tubulin (porcine) (UniProt P02550); experiment: as above

average fluorescence intensity, extension minus background [1]: 12.8 AU
average fluorescence intensity, seed minus background [2]: 62.6 AU
Substance: C-terminus GFP-tagged EB1 (from UniProt Q15691 1-268) (natural protein)

Source: paper PMC2761489
